Laboratory results: paper PMC4393304, “Cloning and Characterization of Three Eimeria tenella Lipid Phosphate Phosphatases” (PLoS ONE, 2015)

T1: EtLPP1 (Eimeria tenella, UniProt A0A0A7H6F4)
T1 construct: full-length, 347 residues, calculated Mr 38239; His6-tagged (pcDNA3.1/His), transient in HEK293 cells, membrane fraction, Ni-NTA purified; bands 40 and 42 kDa, monomer
T1 sequence (A0A0A7H6F4 1-346): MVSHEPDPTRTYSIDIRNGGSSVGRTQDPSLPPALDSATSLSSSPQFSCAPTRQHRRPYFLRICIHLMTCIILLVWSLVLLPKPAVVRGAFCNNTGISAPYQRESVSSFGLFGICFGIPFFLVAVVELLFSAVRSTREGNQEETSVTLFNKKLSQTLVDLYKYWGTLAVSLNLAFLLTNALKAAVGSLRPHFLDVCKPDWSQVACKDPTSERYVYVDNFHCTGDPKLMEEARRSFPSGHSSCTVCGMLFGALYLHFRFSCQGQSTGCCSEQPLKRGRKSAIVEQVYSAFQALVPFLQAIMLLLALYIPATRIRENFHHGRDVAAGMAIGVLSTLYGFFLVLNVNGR


How the values were obtained:
EtLPP1 = target: T1, EtLPP1; experiment: PiPer phosphate-release fluorescence assay; type: biochemical; conditions: pH 6.5, 37°C, Triton X-100 mixed micelles, 1 mg/ml fatty-acid free BSA, Mg2+-independent
Excerpt: (§1) PiPer phosphate-release fluorescence assay on EtLPP1

[1] = substrate: CCCCCCCCCCCCC/C=C/[C@@H](O)[C@@H](N)COP(=O)(O)O; experiment: PiPer phosphate-release fluorescence assay; type: biochemical, Eimeria tenella; conditions: pH 6.5, 37°C, Triton X-100 mixed micelles, 1 mg/ml fatty-acid free BSA, Mg2+-independent
Excerpt: as §1

Molecule | Km (EtLPP1) | Km [1] | Vmax [1]
LPA | 46 ± 9 µM | – | –
EtLPP1 (Eimeria tenella) (protein, full-length, 347 residues, calculated Mr 38239; His6-tagged (pcDNA3.1/His), transient in HEK293 cells, membrane fraction, Ni-NTA purified; bands 40 and 42 kDa, monomer) MVSHEPDPTRTYSIDIRNGGSSVGRTQDPSLPPALDSATSLSSSPQFSCAPTRQHRRPYFLRICIHLMTCIILLVWSLVLLPKPAVVRGAFCNNTGISAPYQRESVSSFGLFGICFGIPFFLVAVVELLFSAVRSTREGNQEETSVTLFNKKLSQTLVDLYKYWGTLAVSLNLAFLLTNALKAAVGSLRPHFLDVCKPDWSQVACKDPTSERYVYVDNFHCTGDPKLMEEARRSFPSGHSSCTVCGMLFGALYLHFRFSCQGQSTGCCSEQPLKRGRKSAIVEQVYSAFQALVPFLQAIMLLLALYIPATRIRENFHHGRDVAAGMAIGVLSTLYGFFLVLNVNGR | – | 22 ± 6 µM | 0.00015 µmol/min/mg
